Substrate in this series: O=P(O)(O)O[C@@H]1[C@H](O)[C@H](O)[C@@H](OP(=O)(O)O)[C@H](OP(=O)(O)O)[C@H]1O
As to the kind of experiment: ADP luciferase assay, nonlinear regression. It counts as biochemical, Trypanosoma brucei. As to conditions: 200 µM ATP, 2 mM MgCl2, 20 mM HEPES, 150 mM NaCl, pH 7.5, 37°C.

What is called Vmax is the rate approached at saturating substrate. In general, kcat/Km refers to the turnover number divided by the Michaelis constant.

B1: T. brucei IPMK (rIPMK, rTbIPMK) (Trypanosoma brucei brucei TREU927) (protein)
chain: MLNICQNLSSVAKPDLIVVSGHKCNIQRGPQTSIGTPTITKRVTAWEALIYLEMLLAEDEAFAILATFVPPLVALLPPENFASDNWVYVHDPASRPLLKSIFAQLKQMSADTHGYNEVMDTTRWEIILVDVTATFHKPCVLDIKLGYVRHSPHTLPDKVERIHKRQLRRSQPIRFCGAHHQFCRQNNDIGECFELEEFTKDMGYALETEESHRRALRSFFTTASLMTTSNTNETTIIDDRHAMARSRCCRQRVQKLVDFLKGHLGQMLLERIAFVSASLLIVYDATGCCGRNVTVSEGINSMNDMVNVYLIDFSRSGDRRLHFPEEVVGFVQGLEKIIFLLS
Turning to B1, the Km was 61.41 (±15.37) µM, the Vmax was 617 µmol/min/mg and the kcat/Km came to 167000 M⁻¹ s⁻¹.
